Test results published in patent publication US20140274782A1 (Stanford University, published 2014).

Key:
Assay in all cases: ProtoArray, GST-treated control array;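 further: human protein microarray (about 9500 recombinant proteins) incubated overnight with GST alone plus SAM cofactor as the negative control for G9a SET domain methylation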
[1] = biological target: C10orf83-chromosome 10 open reading frame 83 (C10orf83) (human, UniProt Q8NDC4 1-146, limits assumed)
[2] = biological target: T1, LTC4S-Leukotriene C4 synthase (human, UniProt Q16873 1-150)
T1 sequence (looked up): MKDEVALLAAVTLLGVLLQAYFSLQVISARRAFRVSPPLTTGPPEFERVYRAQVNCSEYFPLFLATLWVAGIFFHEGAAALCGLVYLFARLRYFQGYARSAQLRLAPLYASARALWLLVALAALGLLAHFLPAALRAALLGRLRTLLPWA

[3] = biological target: T2, CDKL5-Cyclin-dependent kinase-like 5 (human, UniProt O76039-1 1-1030, limits assumed)
T2 sequence (looked up): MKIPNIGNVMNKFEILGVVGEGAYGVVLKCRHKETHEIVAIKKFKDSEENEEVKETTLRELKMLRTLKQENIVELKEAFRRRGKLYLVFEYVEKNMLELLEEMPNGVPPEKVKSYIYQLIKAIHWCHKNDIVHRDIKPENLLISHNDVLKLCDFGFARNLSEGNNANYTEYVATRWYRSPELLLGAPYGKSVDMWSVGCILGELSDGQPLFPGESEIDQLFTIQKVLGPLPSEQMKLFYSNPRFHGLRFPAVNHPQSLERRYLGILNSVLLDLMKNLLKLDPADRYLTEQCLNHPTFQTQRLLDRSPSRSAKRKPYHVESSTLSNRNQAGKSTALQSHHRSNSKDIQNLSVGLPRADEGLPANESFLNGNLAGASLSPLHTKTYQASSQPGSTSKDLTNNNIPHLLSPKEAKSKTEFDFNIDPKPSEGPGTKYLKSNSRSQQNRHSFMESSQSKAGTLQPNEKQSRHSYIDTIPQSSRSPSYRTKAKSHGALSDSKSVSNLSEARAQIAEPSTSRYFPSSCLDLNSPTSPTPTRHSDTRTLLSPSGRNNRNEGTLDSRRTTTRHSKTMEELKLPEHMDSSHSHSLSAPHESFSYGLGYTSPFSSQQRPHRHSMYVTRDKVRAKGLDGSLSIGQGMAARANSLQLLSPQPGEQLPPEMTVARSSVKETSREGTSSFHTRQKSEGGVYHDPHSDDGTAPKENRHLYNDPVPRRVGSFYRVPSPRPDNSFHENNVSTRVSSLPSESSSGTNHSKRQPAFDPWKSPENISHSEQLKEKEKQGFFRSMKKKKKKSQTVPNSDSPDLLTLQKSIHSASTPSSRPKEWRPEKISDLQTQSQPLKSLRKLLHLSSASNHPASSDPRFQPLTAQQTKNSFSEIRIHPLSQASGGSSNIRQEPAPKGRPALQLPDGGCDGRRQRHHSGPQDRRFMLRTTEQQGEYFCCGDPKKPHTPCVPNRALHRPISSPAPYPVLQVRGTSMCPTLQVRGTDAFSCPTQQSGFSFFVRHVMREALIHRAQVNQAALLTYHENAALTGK

[4] = biological target: T3, KCTD7-potassium channel tetramerisation domain containing 7 (KCTD7) (human, UniProt Q96MP8 1-289, limits assumed)
T3 sequence (looked up): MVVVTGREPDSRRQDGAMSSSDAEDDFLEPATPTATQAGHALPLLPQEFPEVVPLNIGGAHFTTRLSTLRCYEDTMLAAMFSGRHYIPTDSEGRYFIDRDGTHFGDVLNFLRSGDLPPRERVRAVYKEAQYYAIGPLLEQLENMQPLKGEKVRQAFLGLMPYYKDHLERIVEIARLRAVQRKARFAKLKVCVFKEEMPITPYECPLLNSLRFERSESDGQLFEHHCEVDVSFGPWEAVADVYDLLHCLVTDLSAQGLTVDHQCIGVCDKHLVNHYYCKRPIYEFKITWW

[5] = biological target: TTC27-Tetratricopeptide repeat protein 27 (human, UniProt Q6P3X3 1-843)
[6] = biological target: T4, SSR4-signal sequence receptor, delta (translocon-associated protein delta) (SSR4) (human, UniProt P51571 24-173, limits assumed)
T4 sequence (looked up): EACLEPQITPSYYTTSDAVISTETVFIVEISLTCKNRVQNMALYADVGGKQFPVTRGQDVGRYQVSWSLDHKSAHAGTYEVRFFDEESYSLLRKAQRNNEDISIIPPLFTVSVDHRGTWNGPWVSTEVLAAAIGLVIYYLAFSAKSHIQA

[7] = biological target: T5, FKBP14-FK506 binding protein 14, 22 kDa (FKBP14) (human, UniProt Q9NWM8 20-211)
T5 sequence (looked up): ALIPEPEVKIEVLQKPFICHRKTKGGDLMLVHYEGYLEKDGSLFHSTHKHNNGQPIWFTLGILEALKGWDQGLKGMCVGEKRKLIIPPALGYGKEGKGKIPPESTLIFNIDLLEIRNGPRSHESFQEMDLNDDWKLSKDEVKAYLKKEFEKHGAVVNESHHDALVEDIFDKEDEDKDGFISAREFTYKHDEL

[8] = biological target: KRR1-KRR1, small subunit (SSU) processome component, homolog (yeast) (KRR1) (human, UniProt Q13601 1-381, limits assumed)
Sequence of KRR1-KRR1, small subunit (SSU) processome component, homolog (yeast) (KRR1) (Q13601 whole entry): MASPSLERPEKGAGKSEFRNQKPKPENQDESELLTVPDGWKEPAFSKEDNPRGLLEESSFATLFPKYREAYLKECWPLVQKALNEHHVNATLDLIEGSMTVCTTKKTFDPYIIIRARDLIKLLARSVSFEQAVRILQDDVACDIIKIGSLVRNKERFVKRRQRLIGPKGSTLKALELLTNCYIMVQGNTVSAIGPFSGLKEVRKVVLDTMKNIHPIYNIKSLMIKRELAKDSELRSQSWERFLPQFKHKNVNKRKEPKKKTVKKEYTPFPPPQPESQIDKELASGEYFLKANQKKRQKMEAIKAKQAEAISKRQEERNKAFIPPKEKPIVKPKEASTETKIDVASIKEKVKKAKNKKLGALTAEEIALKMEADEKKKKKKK

[9] = biological target: CA13-carbonic anhydrase XIII (CA13) (human, UniProt Q8N1Q1 1-262)
Sequence of CA13-carbonic anhydrase XIII (CA13) (Q8N1Q1 whole entry, the tested form may be a part): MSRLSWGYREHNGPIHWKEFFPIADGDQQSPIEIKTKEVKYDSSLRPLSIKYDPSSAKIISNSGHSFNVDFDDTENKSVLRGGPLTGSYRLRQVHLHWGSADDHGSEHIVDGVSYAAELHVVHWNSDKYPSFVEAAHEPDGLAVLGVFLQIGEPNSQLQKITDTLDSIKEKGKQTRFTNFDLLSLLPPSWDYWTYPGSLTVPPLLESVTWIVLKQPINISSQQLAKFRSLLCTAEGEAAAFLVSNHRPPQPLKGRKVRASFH

[10] = biological target: T6, PTCD2-pentatricopeptide repeat domain 2 (PTCD2) (human, UniProt Q8WV60 1-388, limits assumed)
T6 sequence (looked up): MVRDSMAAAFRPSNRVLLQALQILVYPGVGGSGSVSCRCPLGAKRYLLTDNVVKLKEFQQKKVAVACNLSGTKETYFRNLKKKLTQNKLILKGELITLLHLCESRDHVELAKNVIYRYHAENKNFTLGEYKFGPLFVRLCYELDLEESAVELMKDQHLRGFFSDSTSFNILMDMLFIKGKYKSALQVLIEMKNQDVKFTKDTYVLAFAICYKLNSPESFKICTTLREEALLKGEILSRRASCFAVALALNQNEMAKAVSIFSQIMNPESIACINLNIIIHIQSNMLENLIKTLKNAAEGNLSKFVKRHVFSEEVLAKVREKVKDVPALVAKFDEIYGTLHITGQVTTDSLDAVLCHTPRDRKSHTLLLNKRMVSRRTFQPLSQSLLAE

[11] = biological target: FTH1-ferritin, heavy polypeptide 1 (FTH1) (human, UniProt P02794 1-183)
Sequence of FTH1-ferritin, heavy polypeptide 1 (FTH1) (P02794 whole entry): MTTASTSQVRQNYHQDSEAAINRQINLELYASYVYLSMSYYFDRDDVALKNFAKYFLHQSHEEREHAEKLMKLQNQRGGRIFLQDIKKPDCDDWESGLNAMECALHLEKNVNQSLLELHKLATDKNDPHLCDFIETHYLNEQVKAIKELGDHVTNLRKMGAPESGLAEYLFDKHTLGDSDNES

Sequence of C10orf83-chromosome 10 open reading frame 83 (C10orf83) (Q8NDC4 whole entry): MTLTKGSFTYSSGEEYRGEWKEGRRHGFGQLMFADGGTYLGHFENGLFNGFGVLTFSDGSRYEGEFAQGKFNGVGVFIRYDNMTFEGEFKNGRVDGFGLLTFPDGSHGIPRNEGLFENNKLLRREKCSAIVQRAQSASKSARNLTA

GST Average SNR [1]: 0.742
GST Average SNR [2]: 1.21
GST Average SNR [3]: 1.43
GST Average SNR [4]: 1.09
GST Average SNR [5]: 0.496
GST Average SNR [6]: 1.33
GST Average SNR [7]: 1.24
GST Average SNR [8]: 0.566
GST Average SNR [9]: 0.728
GST Average SNR [10]: 0.679
GST Average SNR [11]: -0.802
B1: 3× Flag-3×MBT (designed binder)
chain: EEWSSSQPATGEKKECWSWESYLEEQKAITAPVSLFQDSQAVTHNKNGFKLGMKLEGIDPQHPSMYFILTVAEVCGYRLRLHFDGYSECHDFWVNANSPDIHPAGWFEKTGHKLQPPKGYKEEEFSWSQYLRSTRAQAAPKHLFVSQSHSPPPLGFQVGMKLEAVDRMNPSLVCVASVTDVVDSRFLVHFDNWDDTYDYWCDPSSPYIHPVGWCQKQGKPLTPPQDYPDPDNFCWEKYLEETGASAVPTWAFKVRPPHSFLVNMKLEAVDRRNPALIRVASVEDVEDHRIKIHFDGWSHGYDFWIDADHPDIHPAGWCSKTGHPLQPPLGPREPSSASPGG
notes: also called Flag-tagged 3×MBT; 3xFlag-3xMBT; not shown: made by PreScission cleavage of GST-3× Flag-3×MBT
